Target: T1, αvβ3 expressed in CHO cells (Homo sapiens, UniProt P05106+P06756)
T1 construct: cDNAs encoding full-length human αv and β3 were subcloned into pcDNA3 and pCDM8; expressed in transfected cells
Test: Flow cytometry ligand binding to αvβ3-CHO cells
Conditions: in presence of antibody AP5; 2 mM RGDS, 50 μM cRGDfV, 1 μM Integrilin, 100 μg/ml LM609
Method: Binding of aPB, WOW-1 Fab and FITC-fibrinogen to cells was assessed by flow cytometry. Typically, cells were cultured overnight in low serum medium (e.g., 0.5% fetal bovine serum), resuspended in incubation buffer at 1-1.5×10^7 cells/ml, and 4-6×10^5 cells were incubated with one of these ligands for 30 min at room temperature in a final volume of 50 μl. […] In some experiments, ligand binding and αvβ3 expression were measured simultaneously by incubation of cells with ligands in the presence of biotin-SSA6 (7 μg/ml), a non-function-blocking anti-β3 monoclonal antibody (Abrams, C., Deng, J., Steiner, B., and Shattil, S. J. (1994) J. Biol. Chem. 269, 18781-18788). After 30 min at room temperature, cells were washed and incubated with phycoerythrin-streptavidin (1:25 final dilution; Molecular Probes) for 20 min on ice. In the case of WOW-1 Fab, an Alexa-conjugated anti-(His)6 monoclonal antibody (Accurate Chemical and Scientific Corp., Westbury, N.Y.) was added at this stage (50 μg/ml). Cells were washed and resuspended in 0.5 ml incubation buffer containing 2 μg/ml propidium iodide (Sigma, St. Louis, Mo.). Ligand binding (FL1 channel) was analyzed immediately on the gated subset of live cells (propidium iodide-negative, FL3) that was strongly positive for αvβ3 expression (FL2). […]

T1 sequence (P06756 31-889 limits assumed): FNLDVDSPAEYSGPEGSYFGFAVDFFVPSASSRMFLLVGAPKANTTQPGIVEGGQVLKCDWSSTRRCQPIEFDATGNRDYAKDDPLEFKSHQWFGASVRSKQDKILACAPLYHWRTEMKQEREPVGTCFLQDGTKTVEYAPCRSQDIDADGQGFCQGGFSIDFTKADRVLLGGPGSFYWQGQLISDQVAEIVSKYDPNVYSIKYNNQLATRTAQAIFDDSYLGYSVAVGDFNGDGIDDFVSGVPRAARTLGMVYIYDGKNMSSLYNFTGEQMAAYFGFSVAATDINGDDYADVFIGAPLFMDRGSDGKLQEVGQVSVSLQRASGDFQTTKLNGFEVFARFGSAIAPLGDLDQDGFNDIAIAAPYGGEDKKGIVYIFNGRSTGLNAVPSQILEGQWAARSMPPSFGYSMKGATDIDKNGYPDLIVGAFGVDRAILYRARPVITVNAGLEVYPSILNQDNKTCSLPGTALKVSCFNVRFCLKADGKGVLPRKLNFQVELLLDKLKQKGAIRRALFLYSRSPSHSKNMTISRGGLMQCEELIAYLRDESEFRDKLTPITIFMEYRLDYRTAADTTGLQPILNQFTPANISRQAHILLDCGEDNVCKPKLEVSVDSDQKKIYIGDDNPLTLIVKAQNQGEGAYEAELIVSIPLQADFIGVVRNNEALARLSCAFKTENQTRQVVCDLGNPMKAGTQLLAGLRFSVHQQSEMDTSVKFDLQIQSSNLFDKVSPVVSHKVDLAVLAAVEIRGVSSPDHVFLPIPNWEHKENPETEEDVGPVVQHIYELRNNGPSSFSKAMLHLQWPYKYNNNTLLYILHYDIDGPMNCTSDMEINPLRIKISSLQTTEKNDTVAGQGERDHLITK
T1 sequence (P06756 891-1048 partner limits assumed): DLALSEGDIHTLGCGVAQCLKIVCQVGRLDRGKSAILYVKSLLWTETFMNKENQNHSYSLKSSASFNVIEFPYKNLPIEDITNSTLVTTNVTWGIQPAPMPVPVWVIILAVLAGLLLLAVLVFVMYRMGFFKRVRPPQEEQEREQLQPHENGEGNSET
T1 sequence (P05106 27-788): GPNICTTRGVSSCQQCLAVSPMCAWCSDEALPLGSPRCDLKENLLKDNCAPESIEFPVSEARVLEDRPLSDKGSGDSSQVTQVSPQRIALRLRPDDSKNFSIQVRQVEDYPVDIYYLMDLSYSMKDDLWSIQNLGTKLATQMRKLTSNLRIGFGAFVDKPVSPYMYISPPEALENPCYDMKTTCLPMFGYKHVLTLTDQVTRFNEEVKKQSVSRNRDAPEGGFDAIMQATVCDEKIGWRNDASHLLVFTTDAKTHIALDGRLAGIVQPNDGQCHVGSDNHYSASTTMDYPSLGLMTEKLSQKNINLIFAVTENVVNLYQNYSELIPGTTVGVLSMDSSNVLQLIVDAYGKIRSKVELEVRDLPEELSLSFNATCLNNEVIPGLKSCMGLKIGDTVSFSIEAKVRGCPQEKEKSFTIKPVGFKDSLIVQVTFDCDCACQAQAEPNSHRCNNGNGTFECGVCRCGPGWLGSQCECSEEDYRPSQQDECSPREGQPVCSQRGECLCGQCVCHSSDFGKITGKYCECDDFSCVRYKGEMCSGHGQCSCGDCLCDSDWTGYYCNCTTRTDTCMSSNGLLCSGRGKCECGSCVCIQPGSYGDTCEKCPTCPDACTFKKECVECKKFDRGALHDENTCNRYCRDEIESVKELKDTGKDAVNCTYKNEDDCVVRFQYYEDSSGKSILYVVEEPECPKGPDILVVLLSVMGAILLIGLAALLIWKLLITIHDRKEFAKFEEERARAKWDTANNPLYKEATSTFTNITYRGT

B1: LM609: αvβ3-specific function-blocking monoclonal antibody (antibody, V domains shown)
VH: EVQLEESGGGLVKPGGSLKLSCAASGFAFSSYDMSWVRQIPEKRLEWVAKVSSGGGSTYYLDTVQGRFTISRDNAKNTLYLQMSSLNSEDTAMYYCARHNYGSFAYWGQGTLVTVSA
VL: ELVMTQTPATLSVTPGDSVSLSCRASQSISNHLHWYQQKSHESPRLLIKYASQSISGIPSRFSGSGSGTDFTLSINSVETEDFGMYFCQQSNSWPHTFGGGTKLEIKRA
inhibition of aPB and WOW-1 Fab binding: more than 70%
